Values quoted from earlier work, collected in paper PMC3044768.
Like-named read-outs stand apart in the source and are kept apart here.

Assays:
[1] = target: SARS 3CLpro 3CLpro (Severe acute respiratory syndrome coronavirus) (UniProt P0C6X7); details: cited from earlier work
[2] = target: SARS 3CLpro 3CLpro (Severe acute respiratory syndrome coronavirus) (UniProt P0C6X7); details: cited from earlier work; remark: listed apart in the source

In the case of “SARS 3CLpro 3CLpro (from UniProt P0C6X7)”, the Kd [1] is listed as 5.2 µM and the Kd [2] is listed as 12.7 µM.
